For assay [1], the system named is TNF-induced relocalisation of EYFP-TRADD (TNFR1-containing complex I) in HeLa cells. Put plainly: TNF-mediated relocation of fluorescently tagged TRADD in Clone #49-E2 HeLa cells, 384-well (Example 2). Type of assay: cell-based, human. To be noted: added instead of TNF; FIG. 12. Here is the method:
The following experimental procedure to detect the reporter molecule in the presence of absence of a “test” compound (or molecule, as described below) was conducted.
On day 1, 10^3 cells per well were plated in thin glass bottom 384 wells plate in 50 μl of culture media (DMEM glutamax, 10% FBS, peni-strep, geneticin, hygromycin). The cells were incubated overnight at 37° C. On day 2, media was aspirated, and 35 μl of warm DMEM, 2, 5% FBS, HEPES 10 mM added. Then, 15 μl of 4× the test compound diluted in DMEM, 2, 5% FBS, HEPES 10 mM was added to cells using a Biomek laboratory automation workstation (Beckman-Coulter). This was incubated at room temperature for 1.5 min. […] The cells were washed three times with PBS 1× using an Embla 384 Cell Washer (Molecular Devices). Cells were fixed by adding PBS 1×, 5% PFA+Hoescht 0.2 μg/ml using a Multidrop 384 dispensor (Thermo Scientific; 30 μl/well) followed by an incubation for 20 min at room temperature in the dark. After a further three washes of the cells with PBS 1× using the Embla 384 Cell Washer, 60 μl per well of PBS 1×, 1% peni-strep was added. The plate was covered with a transparent sealing film. Readings were then taken on the Scientific Cellomics ArrayScan HCS Reader automated microscope system as used in Example 1.

For assay [2], the target named is T1, TL1A-activated DR3 receptor (Homo sapiens, UniProt Q93038).
T1 construct: (N); expressed in transfected cells; host or cells: HeLa Tet-On cells stably expressing TRADD-EYFP, transfected with pTRE2-DR3 (HeLa TRADD DR3)
T1 sequence (Q93038 with tags, fused parts or gaps P167L): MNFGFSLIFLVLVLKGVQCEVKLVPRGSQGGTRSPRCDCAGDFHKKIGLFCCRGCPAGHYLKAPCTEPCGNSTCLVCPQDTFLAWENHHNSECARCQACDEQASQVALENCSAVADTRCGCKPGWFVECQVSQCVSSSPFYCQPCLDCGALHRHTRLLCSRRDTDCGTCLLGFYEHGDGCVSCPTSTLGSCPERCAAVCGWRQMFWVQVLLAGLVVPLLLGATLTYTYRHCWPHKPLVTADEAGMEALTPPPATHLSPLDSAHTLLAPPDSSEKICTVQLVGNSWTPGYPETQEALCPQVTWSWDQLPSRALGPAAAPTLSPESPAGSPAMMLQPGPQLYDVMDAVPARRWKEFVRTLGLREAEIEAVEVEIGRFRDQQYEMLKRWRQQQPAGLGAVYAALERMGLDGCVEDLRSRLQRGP
In words: TL1A-induced TRADD-EYFP relocation in HeLa TRADD DR3 recombinant cells (Example 3). Type of assay: cell-based. To be noted: in the presence of 300 ng/ml TL1A; FIG. 17. An excerpt: (§1) In a further example of the present invention, a method involving the TL1A-activated DR3 receptor was developed. The TRADD-EYFP HeLa clones comprising the TRADD-EYFP reporter molecule transfected into HeLa cells as described in Example 1 was employed. The DR3 receptor (cDNA sequence shown in SEQ ID NO: 19 and encoded protein shown in SEQ ID NO: 20) which had been cloned in the vector pCR3.1 (Invitrogen) was transferred into the vector pTre2 (Clontech) using the Gateway® cloning technique with the primers Attb1 Forward primer (SEQ ID NO: 21) and Attb2 Reverse primer (SEQ ID NO: 22), yielding a pTRE2-DR3 expression vector (SEQ ID NO: 23). This expression vector was then transfected into the TRADD-EYFP HeLa clones to produce a double transformants designated HeLa TRADD DR3.
(§2) Monitoring and quantification of the TRADD-EYFP reporter molecule was conducted as described in Examples 1 and 2 above. […] The data of FIG. 17 are depicted graphically in FIG. 18.

The target in assay [3] is T2, TL1A-activated DR3 receptor (Homo sapiens, UniProt Q93038, P167L).
T2 construct: (N); expressed in transfected cells; host or cells: HeLa Tet-On cells stably expressing TRADD-EYFP, transfected with pTRE2-DR3 (HeLa TRADD DR3)
T2 sequence (Q93038 with tags, fused parts or gaps P167L): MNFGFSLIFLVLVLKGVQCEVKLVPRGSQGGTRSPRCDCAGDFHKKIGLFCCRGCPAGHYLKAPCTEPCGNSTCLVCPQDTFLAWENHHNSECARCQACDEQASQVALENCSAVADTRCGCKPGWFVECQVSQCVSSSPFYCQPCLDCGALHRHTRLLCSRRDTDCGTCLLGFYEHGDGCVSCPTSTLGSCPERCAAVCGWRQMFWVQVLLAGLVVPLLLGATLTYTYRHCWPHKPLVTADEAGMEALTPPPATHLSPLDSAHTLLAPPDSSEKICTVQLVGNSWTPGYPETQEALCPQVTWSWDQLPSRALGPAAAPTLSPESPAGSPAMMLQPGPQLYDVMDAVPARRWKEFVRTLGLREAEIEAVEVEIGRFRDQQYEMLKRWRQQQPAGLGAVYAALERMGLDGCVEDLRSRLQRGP
The description is as above. Type of assay: cell-based. Particulars: in the presence of 300 ng/ml TL1A; FIG. 17.
Description: as §1, §2

Assay [4] concerns TNF-induced TRADD relocalisation in HeLa TRADD DR3 cells. Put plainly: TNF-induced TRADD-EYFP relocation in HeLa TRADD DR3 recombinant cells (Example 3). Type of assay: cell-based, human. To be noted: in the presence of 100 ng/ml TNF; FIG. 19.
Description: as §1, §2

B1: CD40L: Fc [human]: CD40L [human] from Apotech Corporation (protein)
chain: GDQNPQIAAHVISEASSKTTSVLQWAEKGYYTMSNNLVTLENGKQLTVKRQGLYYIYAQVTFCSNREASSQAPFIASLCLKSPGRFERILLRAANTHSSAKPCGQQSIHLGGVFELQPGASVFVNVTDPSQVSHGTGFTSFGLLKL
modifications: left off: a dimerising Fc or GST
notes: Fc [human]: CD40L [human] from Apotech Corporation
B1: the “selectivity: relocalisation of the reporter molecule EYFP-TRADD effected by other compounds or molecules” value in assay [1] is reported as “not effected”.

B2: DcR3: DR3 inhibitor; Recombinant Human DcR3/TNFRSF6B/Fc Chimera from R&D Systems (protein)
chain: VAETPTYPWRDAETGERLVCAQCPPGTFVQRPCRRDSPTTCGPCPPRHYTQFWNYLERCRYCNVLCGEREEEARACHATHNRACRCRTGFFAHAGFCLEHASCPPGAGVIAPGTPSQNTQCQPCPPGTFSASSSSSEQCQPHRNCTALGLALNVPGSSSHDTLCTSCTGFPLSTRVPGAEECERAVIDFVAFQDISIKRLQRLLQALEAPEGWGPTPRAGRAALQLKLRRRLTELLGAQDGALLVRLLQALRVARMPGLERSVRERFLPVH
modifications: left off: a dimerising Fc or GST
notes: Recombinant Human DcR3/TNFRSF6B/Fc Chimera from R&D Systems
Consider B2, for which the “IC50 on TL1A-induced relocalisation” value in assay [2] is 1.41 µg/mL. Moreover, the “dose-dependent inhibition of TL1A-induced relocalisation” value in assay [3] is recorded as “dose-dependently inhibited”. The “dose-dependent inhibition of TNF-induced relocalisation” value in assay [4] is “not”.

The values above are taken from patent US20110319287A1, “MODULATOR ASSAY” (ADDEX PHARMA S.A., priority 2009, published 2011).
